# Results as given in the supplement of paper PMC12042874.
# ± gives the uncertainty stated by the source.
# Experiment: amyloid nucleation score (Sup35N fusion, yeast selection) (log enrichment); library NNK3; higher = more nucleation; inactive = no reads after selection
# In short: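 Sup35N fusions to peptides of 20 random codons were expressed in psi-negative yeast, induced 24 hours with 100 μM copper sulfate, and grown 7 days at 30°C on medium lacking adenine and uracil. Input and output plasmid inserts were sequenced by Illumina. The nucleation score is the DiMSum log enrichment of output over input reads, centred on the mode score of non-aggregating sequences. Sequences with under 100 input reads were excluded.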
row,Substance,amyloid nucleation score
1,VTRMLFVHCGTSVNVNS,inactive
2,VTRSDGTTISYNISIKLGKG,2.2 ± 0.071
3,VTSAPNKCFNLFYVNWDHNN,0.784 ± 0.17
4,VTSIPIPR,inactive
5,VTVCSFLLVSRNRNRLRRIY,inactive
6,VTVSPWLFFVWNDGLCSARL,1.05 ± 0.096
7,VVAIWLLGAINMLITTIYSS,inactive
8,VVCLFRVRYRW,1.48 ± 0.12
9,VVCLGTFITGDFIVVYTHYG,2.88 ± 0.054
10,VVDDIWRPIDL,inactive
11,VVFCEYSTCAVRSL,-0.219 ± 0.89
12,VVGFMYYARFLPSDFVSINA,inactive
13,VVGNSCVYPVGPRFAE,-0.454 ± 0.9
14,VVISYQTSMTNHGCLSFYQW,2.13 ± 0.056
15,VVMCGCSSSRMGLGPVYRTF,inactive
16,VVMTDHINIKGIVEPTVTTF,inactive
17,VVQSYFIRREEFLLSCVQAG,inactive
18,VVRIGSRACGLRRKVCGGFG,inactive
19,VVSDTKYVVVEWYTCGQSSD,inactive
20,VVSLESSAVVNGWLWVLAGA,inactive
21,VVTEVSSLSSTGGSFVWLCR,inactive
22,VWFLLSILPHLTKSVSWGNT,inactive
23,VWHMGWKLPDS,-0.39 ± 0.56
24,VWPFPRFRILVKYSFFLGIW,-0.232 ± 0.48

row,Substance,amyloid nucleation score
1,VWPQNLNPICKSNLTRCVGC,inactive
2,VWSHSI,inactive
3,VWSQIERLKHHPEFHMWC,inactive
4,VWTRTWLLMTCHCNRFKDCS,1.67 ± 0.12
5,VWVKSGKWYRQLIRKYVGSS,inactive
6,VWWSYLQKSKILI,0.624 ± 0.2
7,VWYAYRLYQTWKITNVLIPW,inactive
8,VYCHC,inactive
9,VYDMDNVRYNHRGNTERFSG,0.109 ± 0.28
10,VYIRQLRMPAFCLTSGRALD,inactive
11,VYIRTGN,inactive
12,VYKDHAIVLCWVVK,-0.437 ± 0.56
13,VYKWECKDRKYGWRYCAETW,inactive
14,VYLHIVHCMGYVNDQGRNRS,inactive
15,VYMYVALPRSEDHNVF,inactive
16,VYNALNNSAVLQL,inactive
17,VYNTGFLGPVSFSAGKFLML,0.943 ± 0.13
18,VYVGVLVFITWYLSSLYNWA,inactive
19,VYVVRANRFMRSPQLRVLFS,inactive
20,VYYACGMDVKNFWELRLWGD,1.99 ± 0.063
21,WAEREDAAVSLGLWYGDTCF,inactive
22,WAFGYFGCYFQFLVLQDSVG,1.87 ± 0.1
23,WAVIFT,inactive
24,WCGRETSRQWA,0.033 ± 0.39

row,Substance,amyloid nucleation score
1,WCQFSDLSVAFK,inactive
2,WCVASILRQFPLCYFITQNP,inactive
3,WCVMPFNSCTTLMYKFSEN,1.66 ± 0.071
4,WDMENFLD,inactive
5,WDTILDLGGNDVEGSFPVTE,inactive
6,WDVTNLAGFLNDPVSLKLS,inactive
7,WDVYLPLVMSLK,1.29 ± 0.12
8,WEFSVMSRCRKGHYTALFVV,inactive
9,WESLIGLWASAGMIWVHWGS,inactive
10,WEYNASLLVLTHLGWAFHLC,inactive
11,WFCNYRIMYKVSSIAPMLNP,inactive
12,WFNQHTECHGRSVHLAAHNV,-0.14 ± 1
13,WFNTTNSGVEP,inactive
14,WFSNWYYVARDDYLISGREE,inactive
15,WFWLRRSFGFYHVKSSNSFT,inactive
16,WFYYVM,inactive
17,WGKTRFWRVSSWLLNDVWRV,inactive
18,WGLGETCLKLSWPCRN,inactive
19,WGLLRYYE,0.091 ± 0.28
20,WGLLV,inactive
21,WGTVMTLSCVALEVYFSLRV,inactive
22,WGWRA,-0.215 ± 0.57
23,WHGYYMFLW,inactive
24,WHTDWRW,inactive

row,Substance,amyloid nucleation score
1,WHWRGTICVLCAGYRWIAHS,inactive
2,WIFCLVAIFRTEVDMTNYFT,0.355 ± 0.69
3,WIGDIIILWMRHSDLCILNC,inactive
4,WIYRLWQGDIVPRVMTAHTA,-0.735 ± 1.8
5,WKFSISWVYTKME,-0.423 ± 0.75
6,WKGPNRQSMLHGLPLYIYQI,-0.305 ± 0.66
7,WKNLSYRGFHYWTALWHMVR,-0.12 ± 1
8,WKRNKRGKV,1.4 ± 0.11
9,WKTTMALRSVLPGGYLHFCV,inactive
10,WKVMLRLALRMQCTHLAVCW,inactive
11,WLCLEYMVDEADNFSDGAWM,inactive
12,WLELVSCS,inactive
13,WLKNF,inactive
14,WLLKIMQYLDLAGNG,inactive
15,WLLTNNLDCQCCMCLDWMWC,2.81 ± 0.057
16,WLRSVLLRVTLLNSWHSWVS,inactive
17,WLVFKSVFVDRM,inactive
18,WLWTLYDG,inactive
19,WLYRNA,inactive
20,WMCIEGIANLESAFNRRFST,inactive
21,WMELTVIQCWMAA,inactive
22,WMLLLTV,inactive
23,WMVGVKRSW,inactive
24,WNAYVHTNNV,inactive

row,Substance,amyloid nucleation score
1,WNIFSYNNSLVWNPEGNESG,0.836 ± 0.27
2,WNYRFYPVKRNGSFLSRIVR,-0.47 ± 0.8
3,WPESIFKLRYRSGCCTEVND,inactive
4,WQLAGYWLEWSIRPEGALDD,inactive
5,WQRWMA,inactive
6,WQYLNFS,0.75 ± 0.29
7,WRACHSRSSVVNWISLPDYS,inactive
8,WRFRPVVYQRRPY,inactive
9,WRLVLLHW,inactive
10,WRQVL,inactive
11,WRRMTEPMSAKGLTNYLEST,inactive
12,WRVADTTEARMTGWGVWQWY,inactive
13,WRVLKADDYFFFWWASCFAY,inactive
14,WSAECLFLVWRIHSML,inactive
15,WSCNN,inactive
16,WSDQTDRAGHFAVFNLSMGY,inactive
17,WSEHGQWMYNRLCGSGFISH,inactive
18,WSFCVSTREGSSNNFSRCGK,inactive
19,WSKDG,inactive
20,WSMSSVTYNSVCSCGSWCE,1.87 ± 0.091
21,WSQEATTM,inactive
22,WSRMTKSHKCRWDQLVTVHG,inactive
23,WTLFWNPLI,inactive
24,WTMVSGDALTCYTMTTMVRR,inactive

row,Substance,amyloid nucleation score
1,WTRCRLTDFYHSGMSYHHSG,inactive
2,WTRGNRHVVLQLLGQVSF,inactive
3,WTTNLVNAYLDRHVHNLMPL,inactive
4,WVGLCFLRFQVHSTSDESVS,inactive
5,WVNKEDESVVWYIWFGIECC,inactive
6,WVVEQVDLLSGMVIGLKNSR,inactive
7,WVVWEM,inactive
8,WWSCGILSKPFFWYISRTF,inactive
9,WWSKVMYRSTPTLNAFKDRQ,inactive
10,WYFWVFCSFKLENCAPVNQW,inactive
11,WYHVSHVYYGVGIGLRD,inactive
12,WYIVTNR,inactive
13,WYYQVKMISVCSLIEGMWTS,inactive
14,YAARNWIVQVD,inactive
15,YADRRIFSVS,inactive
16,YAIAAYFDKRRIVGWVINCS,inactive
17,YAKCSDVY,inactive
18,YALYCVFTGNSWQSVLRHRY,1.32 ± 0.095
19,YASFTK,inactive
20,YAWLCAASRYKTMVESLAEF,inactive
21,YAYVQRVYLACSINLMCLWY,inactive
22,YCCTLVTRCSVMNTL,2.46 ± 0.065
23,YCFICVDSIAL,2.27 ± 0.072
24,YCGEYYITGNMRLPLSTPSG,inactive

row,Substance,amyloid nucleation score
1,YCGTY,inactive
2,YCGWLCSSPPVQNV,inactive
3,YCIRVVVWYNRHYGYSLS,inactive
4,YCLKLLGGFC,0.657 ± 0.27
5,YCMGYSMHIV,inactive
6,YCMVKL,inactive
7,YCRCLCMLYG,inactive
8,YCVSMANKLTCLCKGNSYPN,2.4 ± 0.061
9,YCVYQWLSYSVCLFNLMECT,inactive
10,YCYAMS,inactive
11,YCYLGG,-0.36 ± 0.8
12,YDCCMLHWIVFGGIVDGMCL,inactive
13,YDCFFTEIAVVVNIE,inactive
14,YDGIKSGFECLESGRKCKTA,inactive
15,YDKCLQCARRHNSSILSPTG,inactive
16,YDRPSVVRTWRTREKAVSGP,inactive
17,YDSRFTKLTCQSPINWHKEV,inactive
18,YDTNLRLFRSRRLSPGWCFR,inactive
19,YDVTSDR,inactive
